Laboratory results reported in US20030092066A1, “Purified Stat proteins and methods of purifying thereof” (published 2003).
Blank lines part the entries; values can stand above or below the molecule they belong to.

Legend:
[1] = molecular target: nonphosphorylated human Stat1α (human) (UniProt P42224); test: cell-based or functional assay
[2] = molecular target: tyrosine-phosphorylated Stat1tc, truncated Stat1 (132-713) (human) (UniProt P42224); test: cell-based or functional assay
[3] = molecular target: tyrosine-phosphorylated human Stat1α (human) (UniProt P42224); test: cell-based or functional assay
[4] = molecular target: T1, Stat1tc (Stat1 132-713, Tyr701-phosphorylated, NEM-alkylated) (Homo sapiens, UniProt P42224 SEQ:1-582); test: EMSA; dimer and two-dimer complexes both displaced in <1 min; no stabilisation (lacks residues 1-131); conditions: tags: none; E. coli; initiator Met absent; phosphorylated in vitro by EGF-receptor kinase; chain copies: 2 (stated, homodimer); label: 32P (Klenow fill-in); protruding 5'-TCC, filled in; two parallel sites
T1 chain: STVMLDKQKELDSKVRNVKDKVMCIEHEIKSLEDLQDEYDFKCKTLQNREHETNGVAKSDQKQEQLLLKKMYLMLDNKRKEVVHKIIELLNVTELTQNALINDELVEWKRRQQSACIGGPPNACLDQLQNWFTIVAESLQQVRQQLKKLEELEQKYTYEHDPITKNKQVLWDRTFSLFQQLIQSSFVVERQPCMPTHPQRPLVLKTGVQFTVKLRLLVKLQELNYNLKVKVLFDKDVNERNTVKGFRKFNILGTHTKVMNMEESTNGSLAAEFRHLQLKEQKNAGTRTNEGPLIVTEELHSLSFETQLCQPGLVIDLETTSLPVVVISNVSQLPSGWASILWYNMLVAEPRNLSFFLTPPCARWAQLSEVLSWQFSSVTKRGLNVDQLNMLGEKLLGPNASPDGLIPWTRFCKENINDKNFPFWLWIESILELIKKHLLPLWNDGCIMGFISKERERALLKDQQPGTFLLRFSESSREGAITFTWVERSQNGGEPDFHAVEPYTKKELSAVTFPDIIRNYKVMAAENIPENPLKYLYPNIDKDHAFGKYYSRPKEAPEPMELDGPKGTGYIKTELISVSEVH
Experimental: FIG. 6A. Comparison of the dissociation rates of complexes containing DNA fragments with two consecutive binding sites (2×osWT, 10 bp apart) and Stat1α (right) or Stat1tc (left). 0.5×10⁻⁹ M dimer was prebound with 0.7×10⁻⁹ M radiolabelled DNA for 5 min at room temperature (lanes 1 and 8). After the addition of a 100-fold molar excess of unlabelled DNA at time point zero the reaction was further incubated for the times indicated before aliquots were loaded on a running polyacrylamide gel. At time zero two differently migrating complexes are visible, denoted “(2×(Dimer))” and “Dimer”. Unbound (free) DNA runs at the bottom of the gel.
Dissociation rate determination. Under the reaction conditions described above, each oligonucleotide (at 2×10⁻⁹ M or otherwise stated) was mixed with 0.55×10⁻⁹ M dimer of purified phosphorylated Stat1 protein. The reaction volume was scaled up to 100 μl. The reaction was incubated for 5-15 min at room temperature and for time zero, an aliquot (10 μl) was removed and loaded directly onto a pre-run polyacrylamide gel (see above). […] Gels were dried, exposed to X-ray film and labelled protein/DNA complexes and unbound labelled DNA were quantitated as described above. The half life was determined from a semi-log plot of the numerical data (shifted radioactivity over shifted radioactivity at time zero versus time). […]

[5] = molecular target: the molecule itself; test: dimerization in solution, method not given

- displacement of dimeric and [2×(dimeric)] complexes on tandem DNA sites by excess unlabelled oligonucleotide [2]: < 1 min
Molecule: tyrosine-phosphorylated Stat1tc, truncated Stat1 (132-713) (from UniProt P42224 132-713)

- displacement of the [2×(dimeric)] complex on tandem DNA sites by excess unlabelled oligonucleotide [3]: > 30 min
Molecule: tyrosine-phosphorylated human Stat1α (from UniProt P42224 1-750)

Second part, the molecule before the results:

Molecule: EGF-receptor from human carcinoma A431 cells (from UniProt P00533 25-1210)
- percentage of Stat protein that was phosphorylated [1]: < 75%

B1: 2xcfosWT tandem, 10 bp spacing (dsDNA)
DNA 1: AGTCAGTTCCCGTCAATGCATCAGGTTCCCGTCAATGCAT
DNA 2: ATGCATTGACGGGAACCTGATGCATTGACGGGAACTGACT
- binding result [4]: binds

B2: amino terminal domain of Stat1 (amino terminal 131 amino acids) (other)
chain: MSQWYELQQLDSKFLEQVHQLYDDSFPMEIRQYLAQWLEKQDWEHAANDVSFATIRFHDLLSQLDDQYSRFSLENNFLLQHNIRKSKRNLQDNFQEDPIQMSMIIYSCLKEERKILENAQRFNQAQSGNIQ
notes: also called 16 kDa fragment; N-terminal fragment
- binding result [5]: binds
